This note sets out measurements from US8491891B2, “Human beta-glucuronidase mutants with elevated enzymatic activity under physiological conditions and method for identifying such” (Academia Sinica, priority 2008, dated 2013).

A short description of the series: Enzymatic activity of mouse versus human β-glucuronidase at pH 7.0. The series is classed as biochemical. From the text:
Each of the cDNAs encoding human and mouse beta-glucuronidases (Genbank accession no. NM_000181, 03-SEP-2009 and Genbank accession no. J02836.1, 29-APR-1996) was fused to the juxtamembrane Ig-like extracellular domain, transmembrane domain and cytoplasmic tail of murine B7-1. See Chen et al., Cancer Gene Ther 14:187-200 (2007).

B1: Mouse β-glucuronidase: mouse beta-glucuronidase, Genbank accession no. J02836.1 (protein)
chain: LKGGMLFPKESPSRELKALDGLWHFRADLSNNRLQGFEQQWYRQPLRESGPVLDMPVPSSFNDITQEAALRDFIGWVWYEREAILPRRWTQDTDMRVVLRINSAHYYAVVWVNGIHVVEHEGGHLPFEADISKLVQSGPLTTCRITIAINNTLTPHTLPPGTIVYKTDTSMYPKGYFVQDTSFDFFNYAGLHRSVVLYTTPTTYIDDITVITNVEQDIGLVTYWISVQGSEHFQLEVQLLDEGGKVVAHGTGNQGQLQVPSANLWWPYLMHEHPAYMYSLEVKVTTTESVTDYYTLPIGIRTVAVTKSKFLINGKPFYFQGVNKHEDSDIRGKGFDWPLLVKDFNLLRWLGANSFRTSHYPYSEEVLQLCDRYGIVVIDECPGVGIVLPQSFGNESLRHHLEVMEELVRRDKNHPAVVMWSVANEPSSALKPAAYYFKTLITHTKALDLTRPVTFVSNAKYDADLGAPYVDVICVNSYFSWYHDYGHLEVIQPQLNSQFENWYKTHQKPIIQSEYGADAIPGIHEDPPRMFSEEYQKAVLENYHSVLDQKRKEYVVGELIWNFADFMTNQSPLRVIGNKKGIFTRQRQPKTSAFILRERYWRIANETGGHGSGPRTQCFGSRPFTFKADFSTPNITESGNPSADTKRITCFASGGFPKPRFSWLENGRELPGINTTISQDPESELYTISSQLDFNTTRNHTIKCLIKYGDAHVSEDFTWEKPPEDPPDSKNTLVLFGAGFGAVITVVVIVVIIKCFCKHRSCFRRNEASRETNNSLTFGPEEALAEQTVFL
modifications: left off: small tags and cut ends
Turning to B1, the “Enzymatic activity compared with human β-glucuronidase” value was “about three-fold greater”.
